The results in this text go back to the DeepSol protein solubility set.

The data set can be described thus: soluble on expression in E. coli; label from the status in PepcDB or PDB records.
“MKILLEVKYMTKFQVAYVPVGVPTFHLESAQKEFEKSIDLLNTITDAAIVPDKMLLSIQDLTNFLDTIEPSLIILQNITFANAAYASEVLKRFSCPVLLWTLREPVIDGGRLRLNSLTGAYSAGNALAAFRDGNFEYIFGAPQEERTKKTISACIRAAWLKNELKNLRIASVGHTPQGFGFGRAMDADMQKVFGATLESIEVRELIDMAKGYTDDECSEYLDKMTKCTVGLDKTPDNNRKDFARLCKAYKEYVDENNIGALSSRCWPDFFTAFGTPVCGVLAMLNDMGVAASCEADTYGALSMYMGMKLSEQAVFFGDPVSLDESENTITFWHCGTAACSIAREDTGATIGVHPNRKIGPVMDFGCKAADKVTVFRVGQKADGSFRFFVTTGSALDKPKQFCGTSIVVRTDKNSYDIVNQSVKDGWEPHFVVIYGDCSDELKVLGHMLEIEVCEY”: the “soluble on expression in E. coli” value is given as “not soluble”.
The entry for “MKINNGPVLCPHCGCLSAYYEIDRLAAIREKVNKEGGSAAWDSTLQAHKKKAFCLMCHKSIDEVVIGQSDAPESTK” is “not soluble”.
The entry for “MKINQMKKDQLFEGFYLIKSAEVRKTRAGKDFISLTFQDDTGEISGNLWDAQPYNVEEFTAGKVVFMKGRREVYNGTPQVNQITLRNVRPGEPNDPKDFKEKAPVSVTEVRDYLEQMLFKIENATWQRIVRALYRKYDKEFYTYPAAKTNHHAFESGLAYHTATMVRLADSIGDIYPDLNKSLLFAGIMLHDLAKVIELTGPDNTEYTVRGNLIGHISLINEEITKVISELQIDDTKEEVIVLRHVILSHHGQLEYGSPVRPRIMEAEIIHMIDNIDANMMMMTTALSRVSEGEMTNRIFAMDNRSFYKPNY” is “not soluble”; for “MKISLSTSLFSIEQKVEYFNLNYQSLSDFSVVAKLNYTFTWYGNDFSIGFAPKKGEKLYFDLFFTFKASPNHPFAAENFKPDSEAIDFYVSFSWRLEGKDEVSKKLFELSVFGRARAFQIDDYKINLFSYLVYVIR” it is “soluble”; for “MKISRETLHQLIENKLCQAGLKREHAATVAEVLVYADARGIHSHGAVRVEYYAERISKGGTNREPEFRLEETGPCSAILHADNAAGQVAAKMGMEHAIKTAQQNGVAVVGISRMGHSGAISYFVQQAARAGFIGISMCQSDPMVVPFGGAEIYYGTNPLAFAAPGEGDEILTFDMATTVQAWGKVLDARSRNMSIPDTWAVDKNGVPTTDPFAVHALLPAAGPKGYGLMMMIDVLSGVLLGLPFGRQVSSMYDDLHAGRNLGQLHIVINPNFFSSSELFRQHLSQTMRELNAITPAPGFNQVYYPGQDQDIKQRKAAVEGIEIVDDIYQYLISDALYNTSYETKNPFAQLEHHHHHH” it is “soluble”.
“MKITSYVSFLYCLCLMLASPTVQASEVRTAIFEGKPCINPPHVVGNYPATPFLFYIPTSGERPIKWHAENLPKGLKLDKETGIIKGKVVEKGTYKVMLKAENALGTDTQELLINIGDELLLTPPMGWNSWNTFGRHLTEELLLQTADAMVENGMRDLGYAFINIDDFWQLPERGADGHIQIDKTKFPRGIKYVADYLHERGFKLGIYSDAADKTCGGVCGSYGYEEIDARDFASWGVDLLKYDYCNAPAGRVEAMERYEKMGRALRATDRSIVFSICEWGQREPWKWAKKVGGHLWRVSGDIGDLWNRSTDEKGGLRGILNILEINAPLSEYARPGGWNDPDMLVVGIGGKSKSIGYESEGCTNEQYQSHFALWCMMASPLLCGNDVRQMNDSTLQILLNKDLIAINQDPLGIQAERAIRADHYDVWVKPLSDGSKAIACLNRISGPVDVELNVKTVEGLSLDRVYDVIEGSLVAEASTGWVVKLAPGECKVFICKLEHHHHHH”: the “soluble on expression in E. coli” value is listed as “not soluble”.
The entry for “MKITVIGAGNVGATTAFRLAEKQLARELVLLDVVEGIPQGKALDMYESGPVGLFDTKVTGSNDYADTANSDIVVITAGLPRKPGMTREDLLSMNAGIVREVTGRIMEHSKNPIIVVVSNPLDIMTHVAWQKSGLPKERVIGMAGVLDSARFRSFIAMELGVSMQDVTACVLGGHGDAMVPVVKYTTVAGIPVADLISAERIAELVERTRTGGAEIVNHLKQGSAFYSPATSVVEMVESIVLDRKRVLTCAVSLDGQYGIDGTFVGVPVKLGKNGVEHIYEIKLDQSDLDLLQKSAKIVDENCKMLDASQG” is “soluble”; for “MKIVSIKIKNYRVFEDIKITNIPSFCVIIGANGTGKSTLFDVFGFLRDALKNNIRQALQIRGGFKEVVTRGKESEDIEIELKFRMEILATERLVTYILIIGQEGKKPVIKREILRYKRGEYGSPFHFLDFHNGQGYAIRNEESFESDEELEREEQKLESADILAIKGLGQFQRFKAANAIRSLIENWHVSDFHISDARGSKAALYAEHLSPTGDNIPIVAQYIYQEHPEIFAEILQRMKQRVPGISNVEAKEIEGGSLILKFQDQAFEDSFVDLYVSDGTIKMFAYLILLFDPKPHPLLCVEEPENQLYPTLLRELAEEFASYAHRGGQVFVSTHSPDFLNAVPLDSIFWLIKIQGVTKVEKAADHEVLRNLIAAGDLPGYLWNQGWFEGVAPLEHHHHHH” it is “not soluble”.
The entry for “MKIVYWSGTGNTEKMAELIAKGIIESGKDVNTINVSDVNIDELLNEDILILGCSAMADEVLEESEFEPFIEEISTKISGKKVALFGSYGWGDGKWMRDFEERMNGYGCVVVETPLIVQNEPDEAEQDCIEFGKKIANI” is “soluble”; for “MKKDQYFNLEVNFLSNDNIVRMMMELDAAQSLGIYMMLLTHLRKADNYEASCCPLCMGAFARMYDLDAGVLQRVLREFDLFVLDEERQMFRSPYLDRVMARLEERRMINVANGKKGGRPKRMESTPETPMDKGEKPNQNQKSREEERRVTTVVKDNNSSNEEKTEKENSAAASDRLQIVSPPEDRGQLPLQPVLPWEMLVDQMAESESYMESMAMHSCMGKLFVERQEEVIAAFKEHIRRFGREDGLLFLRDVKLYFGNYLSPGGRPAQELKKRLLGSCRQSAEEELYRFEQLIGGQRTYLGHPIPKDAPPRPDRSAVWDEVHWKWGN” it is “not soluble”.
The entry for “MKKEKAIVVFSGGQDSTTCLLWALKEFEEVETVTFHYNQRHSQEVEVAKSIAEKLGVKNHLLDMSLLNQLAPNALTRNDIEIEVKDGELPSTFVPGRNLVFLSFASILAYQIGARHIITGVCETDFSGYPDCRDEFVKSCNVTVNLAMEKPFVIHTPLMWLNKAETWKLADELGALDFVKNNTLTCYNGIIADGCGECPACHLRSKGYEEYMVMKGERA” is “soluble”.
As to “MKKEKDLSVAVLIDGDNASSEKMEDVMRFVSRYGAAVVRRIYGDWTKKSLSGWKDAARDYSFRMVQASSFVPGKNTTDIALVMDAMDILHEGRVGCFCLVASDGDYTLLAQRIRESGLTVLGYGEGKTPAALVRSCTEFLLADRKEEKPFQENTPEFFIQRDMEYFDKAFEQAADGKAEVSLSLIGGVLKKLMPKFKVKRYGCRTLGKLYERLEKYELVKTGKGVAGLVRIKS”, the “soluble on expression in E. coli” value is reported as “not soluble”.
Regarding “MKKFLALLLSVIIVFSLTACGGKNSGNNSNNSSNNNSSNNTGGKKIKIGMVTDVGGVNDGSFNQSAWEGLQRAQKELGVEVRYAESATDADYAPNIEAFIDEGYDLIICVGYMLADATRKAAEANPNQKFAIIDDASIDLPNVTCLMFEQSQASYLVGLVAGKMTKTNKVGFVVGMVSQTMNEFGYGYLAGVKDANPNATILQFNANSFSSTETGKSAATTMITNGADVIFHAAGGTGLGVIEGCKDAGKWAIGVDSDQSPLAPENILTSAMKRVDNACFDIAKAVKEGNVKPGIITYDLKSAGVDIAPTTTNLPKEVLDYVNQAKQDIINGKITVPKTKAEFEAKYGNIYELDD”, the “soluble on expression in E. coli” value is reported as “soluble”.
The entry for “MKKGSRHNFVVSQENWTLHRKGYQDQRRHQEKVKEAIRKNLPDLVSEENIIMSNGREVIKIPIRSLDEYKIRYNYDKNKHVGQGDGDSQVGDVIARDPSAGQQGPGKGQGAGDQPGEDYFEAEVSILELEELLFRELELPNLQQKEEDHLVVEHIEFNDIRKKGLMGNIDKRRTILSAIKRNALEGRPGLIPIYNDDLRFKTWNEVVRPESKAVVLAMMDTSGSMGRWEKYMARSFFFWMTRFLRTKYETVDIEFIAHHTEAKVVSEEDFFSKGESGGTICSSAYRKALELINEKYDPARYNIYPFHFSDGDNLTSDNARCLKLVHELMESSSMFGYGEVNQYSRHSTLMNAYKNLKDPRFRSYVLKEKGDVYRAMKTFFKKEEEAVSAAALEHHHHHH” is “soluble”; for “MKKGVLIAFEGIDGSGKSSQATLLKDWIELKRDVYLTEWNSSDWIHDIIKEAKKKDLLTPLTFSLIHATDFSDRYERYILPMLKSGFIVISDRYIYTAYARDSVRGVDIDWVKKLYSFAIKPDITFYIRVSPDIALERIKKSKRKIKPQEAGADIFPGLSPEEGFLKYQGLITEVYDKLVKDENFIVIDGTKTPKEIQIQIRKFVGELIDNSF” it is “soluble”; for “MKKHIALIFTPINKKYKDALTHYAPPLGLVALANYISERLQNVRISILDGSVTHSMEDIIKFIEDEKPDIVAQSVQLISYENSLVIAKSAHNIGSINVLGGQHATQMADAIIFRQQGLIDYVSIEDGEESLLGLLEERDISEIPNLVFMKDGKINRTKYFQLDLKNAPKLDYSIVDFKPYQKLLNESNFTNPNPINNYLRVYSHKGCGNRKNSVGCVFCGRADKGVRFKSPEKFWEDIKICADEFKADYIFDVGDDFLYNHDWVSKVAEIKPDIRKKFELGIFARANRVNLSIAKKLKKIGVTDVVIGFESGDEEVLRRCNKRDTSTETSLIAADALATAGIDITASFVLGLPGENSESLKKTIKCAEKVVNIITEKLGRPPREMVGNLIEPSPGSIAYNQLLKAYPGKYYLNDYVPLDEMQRDYFKYYFGLDSLKSYLEFRKELNKAAQEIHGLVSFSDSQGWLEDEFV” it is “not soluble”.
The entry for “MKKIHYTDNYLLKPYHPVTIHVAGAGGTGSQVITNLARMNVALQALGHPGLHVTVFDPDIITEANIGRQLFSEMELGQGKATAAVTRVNRFFGTTWTAENCRYPVRKTQENGDDRTKPANIIITCTDNTRSRLELWRFLKKYRETSVNNERAVYYWMDFGNAQTTGQVFIGTVRNKIRQPASKEFMPVPGMNVITEEVNYSTIEEKDSEPSCSLAEALERQDLYINSILAQVGCDILWRMFKEGRTLYRGAYINLDTLRVNPIPV” is “not soluble”; for “MKKIILTIGCPGSGKSTWAREFIAKNPGFYNINRDDYRQSIMAHEERDEYKYTKKKEGIVTGMQFDTAKSILYGGDSVKGVIISDTNLNPERRLAWETFAKEYGWKVEHKVFDVPWTELVKRNSKRGTKAVPIDVLRSMYKSMREYLGLPVYNGTPGKPKAVIFDVDGTLAKMNGRGPYDLEKCDTDVINPMVVELSKMYALMGYQIVVVSGRESGTKEDPTKYYRMTRKWVEDIAGVPLVMQCQREQGDTRKDDVVKEEIFWKHIAPHFDVKLAIDDRTQVVEMWRRIGVECWQVASGDF” it is “soluble”.
As for “MKKIQTPNAKGEVRIIAGLWRGRKLPVLNSEGLRPTGDRVKETLFNWLMPYIHQSECLDGFAGSGSLGFEALSRQAKKVTFLELDKTVANQLKKNLQTLKCSSEQAEVINQSSLDFLKQPQNQPHFDVVFLDPPFHFNLAEQAISLLCENNWLKPNALIYVETEKDKPLITPENWTLLKEKTTGIVSYRLYQNLEHHHHHH”, the entry is “soluble”; as for “MKKLAIAGALLLLAGCAEVENYNNVVKTPAPDWLAGYWQTKGPQRALVSPEAIGSLIVTKEGDTLDCRQWQRVIAVPGKLTLMSDDLTNVTVKRELYEVERDGNTIEYDGMTMERVDRPTAECAAALDKAPLPTPLPLEHHHHHH”, “soluble”; as for “MKKLEVKDLKENFFEAIGKEWMLVTAGTKEKFNTMTASWGGIGWLWNKPVAFVFVRPERYTYEFIEKSDYLTLSFLGEANKKIHAVCGSKSGRDTDKVKATGLKPVFTEQGNVLFEQARLSLEGRKLYADNIKPECFLDKESLEKWYDDAHGGFHKMYIVEIENIWEGD”, “not soluble”.
